We go through 1 molecule from article PMC4605320, “Interference activity of a minimal Type I CRISPR–Cas system from Shewanella putrefaciens”.

The data set deals with T1, Cas1821 (Cascade backbone);Cas1822;Cas6f (Shewanella putrefaciens …, UniProt A4Y6G1;A4Y6G2;A4Y6G3 1-315;1-336;1-183, ||).
T1 sequence 1: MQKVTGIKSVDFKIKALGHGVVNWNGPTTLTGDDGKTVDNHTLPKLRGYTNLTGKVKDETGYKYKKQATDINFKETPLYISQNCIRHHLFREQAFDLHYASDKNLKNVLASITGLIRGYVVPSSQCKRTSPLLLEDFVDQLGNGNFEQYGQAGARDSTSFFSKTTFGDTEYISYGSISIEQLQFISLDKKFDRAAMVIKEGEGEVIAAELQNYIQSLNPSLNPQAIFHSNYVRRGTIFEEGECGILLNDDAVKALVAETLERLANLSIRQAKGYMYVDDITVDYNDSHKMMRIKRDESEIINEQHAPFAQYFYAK
T1 sequence 2: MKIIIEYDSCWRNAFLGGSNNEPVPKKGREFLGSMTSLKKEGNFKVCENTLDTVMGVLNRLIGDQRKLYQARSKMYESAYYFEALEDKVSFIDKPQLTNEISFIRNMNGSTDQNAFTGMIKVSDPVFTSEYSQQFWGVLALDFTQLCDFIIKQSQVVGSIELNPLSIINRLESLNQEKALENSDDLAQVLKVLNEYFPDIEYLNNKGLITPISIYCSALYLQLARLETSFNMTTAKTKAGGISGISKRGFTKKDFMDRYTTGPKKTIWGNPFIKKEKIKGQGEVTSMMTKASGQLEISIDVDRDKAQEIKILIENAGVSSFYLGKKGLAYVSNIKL
T1 sequence 3: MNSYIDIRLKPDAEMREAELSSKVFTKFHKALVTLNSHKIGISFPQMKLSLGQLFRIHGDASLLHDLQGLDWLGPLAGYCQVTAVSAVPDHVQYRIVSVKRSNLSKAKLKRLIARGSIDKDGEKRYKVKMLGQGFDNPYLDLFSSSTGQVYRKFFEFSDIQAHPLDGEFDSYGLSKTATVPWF
Briefly: co-purification (Ni-NTA, size exclusion; RNA by urea PAGE); complex assembled in E. coli; EMSA: 6% native PAGE, 250-500 nM Cas1821, buffer and temperature not given; Cascade SEC: 50 mM HEPES-NaOH pH 7.0, 150 mM NaCl, 1 mM DTT. The note with it: protein: recombinant;recombinant;recombinant; tags: N-terminal His;none;none; chain copies: 6;1;1; 3' five base pair stem-loop (predicted).

B1: mature crRNA, spacer4 (60 nt) (structured_RNA)
RNA: CUUAGAAAUAUCGCCCAGCAAGACGCGCAAACCUAUAACCGUUCACCGCCGCACAGGCGG
For the molecule B1, the binding result was “binds”.
